Results on one variant are retold here after IntAct's records for PubMed 16418270.

To fix the notation:
B1: Ribonuclease P protein component 2 (Pyrococcus furiosus), Q8U151 (parent)
chain: MSERPKTLPPTLRDKKRYIAFKVISENQFNKDEIKEAIWNACLRTLGELGTAKAKPWLIKFDETTQTGIIRCDRNHVYDVIFSLTLVSDINGNKAIIKVLGVSGTIKRLKRKFLSQFGWR
partner: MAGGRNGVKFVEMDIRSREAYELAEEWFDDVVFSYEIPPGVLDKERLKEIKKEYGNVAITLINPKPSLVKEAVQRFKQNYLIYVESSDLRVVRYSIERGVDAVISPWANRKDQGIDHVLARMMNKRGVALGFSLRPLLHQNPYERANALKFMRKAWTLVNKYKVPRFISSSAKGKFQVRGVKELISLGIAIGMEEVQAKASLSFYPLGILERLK

Variants of B1 are the subject of the assay. Conditions: with rnp3_pyrfu rnp3, Q8TZS0.
C72S: the “effect of a mutation on the interaction” value is “decreasing interaction”.
